This assay deals with KIR3DL3 protein (antigen of the affinity determination of Table 3) (human) (UniProt Q8N743). Description: method and antigen format not stated.
Chain of KIR3DL3 protein (antigen of the affinity determination of Table 3) (human) (Q8N743 other isoform, or with tags, fused parts or gaps limits assumed): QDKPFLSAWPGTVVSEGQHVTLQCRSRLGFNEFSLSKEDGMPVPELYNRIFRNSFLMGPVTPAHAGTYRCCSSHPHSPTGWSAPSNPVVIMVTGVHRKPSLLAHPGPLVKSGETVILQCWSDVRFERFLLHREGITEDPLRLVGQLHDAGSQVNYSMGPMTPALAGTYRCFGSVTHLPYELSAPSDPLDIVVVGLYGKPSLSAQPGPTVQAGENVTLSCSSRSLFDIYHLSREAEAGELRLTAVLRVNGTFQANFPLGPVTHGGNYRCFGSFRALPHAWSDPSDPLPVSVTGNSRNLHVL

B1: monoclonal 26E2 (antibody, part only; not given: VH framework 1 and CDR1, V domains shown, part only)
VH, part: RWVKQTPGQGLEWIGYIYPGDGGTNCNQKFQGKATLTADTSSSTAYMQISSLTSEDSAVYFCARSGNYGNYEGFAFWGQGTLVTVSA
VL: DIKMTQSPSSMYASLGERVTITCKASQDTNSYLSWFQQKPGKSPKTLIYRANRLVDGVPSRFSGSGSGQDYSLTISRLEYEDMGIYYCLQYNEFPYTFGGGTKLEIKRADA
Broadly, the Kd is a measure of binding affinity in units of concentration. High values mean weaker binding, low ones tighter binding. B1: the Kd is 0.26 nM.

The values above are taken from US20230040568A1.
